This assay has as its target C-X-C motif chemokine 12 (CXCL12) (mouse (endogenous in BM-MSC of C57BL/6 …, UniProt P40224 22-93)). The experiment in a line: cross-linking + co-IP.

Chain of C-X-C motif chemokine 12 (CXCL12) (mouse (P40224 22-93): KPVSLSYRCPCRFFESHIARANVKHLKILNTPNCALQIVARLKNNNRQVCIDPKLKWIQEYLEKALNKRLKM

B1: chemokine ligand 2 (CCL2) (natural protein)
chain: not shown
Consider B1, for which the “molar interaction ratio of CXCL12/CCL2” value is greater than 1.

These data come from PMC7043065 (Cell reports, 2020).
